The values that follow are results of earlier work, collected in paper PMC2409454.

For the data set, the target named is pRb (Homo sapiens) (UniProt P06400).
UniProt P06400, sequence (P06400 2-928): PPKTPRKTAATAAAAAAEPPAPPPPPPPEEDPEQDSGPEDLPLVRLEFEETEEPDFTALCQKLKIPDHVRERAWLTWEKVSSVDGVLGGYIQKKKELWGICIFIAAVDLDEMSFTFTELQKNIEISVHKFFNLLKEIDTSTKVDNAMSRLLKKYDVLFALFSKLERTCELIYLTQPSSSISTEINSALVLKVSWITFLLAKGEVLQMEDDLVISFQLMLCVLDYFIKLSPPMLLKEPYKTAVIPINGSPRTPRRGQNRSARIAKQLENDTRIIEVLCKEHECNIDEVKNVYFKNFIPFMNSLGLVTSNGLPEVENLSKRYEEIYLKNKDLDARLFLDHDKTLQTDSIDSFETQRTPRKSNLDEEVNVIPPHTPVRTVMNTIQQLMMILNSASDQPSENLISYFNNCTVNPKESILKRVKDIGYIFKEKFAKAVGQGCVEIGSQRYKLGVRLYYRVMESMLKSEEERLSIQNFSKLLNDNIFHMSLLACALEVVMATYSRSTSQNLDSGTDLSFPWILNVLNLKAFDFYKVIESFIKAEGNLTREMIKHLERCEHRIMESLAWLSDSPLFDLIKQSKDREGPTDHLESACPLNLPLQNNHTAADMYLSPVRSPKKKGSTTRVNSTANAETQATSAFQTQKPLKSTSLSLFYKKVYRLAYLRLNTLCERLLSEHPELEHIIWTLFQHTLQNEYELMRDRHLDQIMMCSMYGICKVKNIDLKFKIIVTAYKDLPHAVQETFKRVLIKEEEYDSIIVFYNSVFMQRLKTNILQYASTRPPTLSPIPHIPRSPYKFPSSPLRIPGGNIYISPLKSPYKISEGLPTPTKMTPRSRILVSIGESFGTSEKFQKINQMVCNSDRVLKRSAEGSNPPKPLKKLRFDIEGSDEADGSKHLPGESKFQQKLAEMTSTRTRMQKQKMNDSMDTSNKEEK

With E7 (from UniProt P03129), the Kd was 4.5 nM.
